Measurements reported in IntAct's records for PubMed 24500646.

B1: DDB1- and CUL4-associated factor 8 (Homo sapiens), Q5TAQ9 (parent)
chain: MSSKGSSTDGRTDLANGSLSSSPEEMSGAEEGRETSSGIEVEASDLSLSLTGDDGGPNRTSTESRGTDTESSGEDKDSDSMEDTGHYSINDENRVHDRSEEEEEEEEEEEEEQPRRRVQRKRANRDQDSSDDERALEDWVSSETSALPRPRWQALPALRERELGSSARFVYEACGARVFVQRFRLQHGLEGHTGCVNTLHFNQRGTWLASGSDDLKVVVWDWVRRQPVLDFESGHKSNVFQAKFLPNSGDSTLAMCARDGQVRVAELSATQCCKNTKRVAQHKGASHKLALEPDSPCTFLSAGEDAVVFTIDLRQDRPASKLVVTKEKEKKVGLYTIYVNPANTHQFAVGGRDQFVRIYDQRKIDENENNGVLKKFCPHHLVNSESKANITCLVYSHDGTELLASYNDEDIYLFNSSHSDGAQYVKRYKGHRNNATVKGVNFYGPKSEFVVSGSDCGHIFLWEKSSCQIIQFMEGDKGGVVNCLEPHPHLPVLATSGLDHDVKIWAPTAEASTELTGLKDVIKKNKRERDEDSLHQTDLFDSHMLWFLMHHLRQRRHHRRWREPGVGATDADSDESPSSSDTSDEEEGPDRVQCMPS

Variants of: B1
Settings: with ddb1_human DDB1, Q16531
Chain of ddb1_human DDB1, Q16531 (Q16531 whole entry): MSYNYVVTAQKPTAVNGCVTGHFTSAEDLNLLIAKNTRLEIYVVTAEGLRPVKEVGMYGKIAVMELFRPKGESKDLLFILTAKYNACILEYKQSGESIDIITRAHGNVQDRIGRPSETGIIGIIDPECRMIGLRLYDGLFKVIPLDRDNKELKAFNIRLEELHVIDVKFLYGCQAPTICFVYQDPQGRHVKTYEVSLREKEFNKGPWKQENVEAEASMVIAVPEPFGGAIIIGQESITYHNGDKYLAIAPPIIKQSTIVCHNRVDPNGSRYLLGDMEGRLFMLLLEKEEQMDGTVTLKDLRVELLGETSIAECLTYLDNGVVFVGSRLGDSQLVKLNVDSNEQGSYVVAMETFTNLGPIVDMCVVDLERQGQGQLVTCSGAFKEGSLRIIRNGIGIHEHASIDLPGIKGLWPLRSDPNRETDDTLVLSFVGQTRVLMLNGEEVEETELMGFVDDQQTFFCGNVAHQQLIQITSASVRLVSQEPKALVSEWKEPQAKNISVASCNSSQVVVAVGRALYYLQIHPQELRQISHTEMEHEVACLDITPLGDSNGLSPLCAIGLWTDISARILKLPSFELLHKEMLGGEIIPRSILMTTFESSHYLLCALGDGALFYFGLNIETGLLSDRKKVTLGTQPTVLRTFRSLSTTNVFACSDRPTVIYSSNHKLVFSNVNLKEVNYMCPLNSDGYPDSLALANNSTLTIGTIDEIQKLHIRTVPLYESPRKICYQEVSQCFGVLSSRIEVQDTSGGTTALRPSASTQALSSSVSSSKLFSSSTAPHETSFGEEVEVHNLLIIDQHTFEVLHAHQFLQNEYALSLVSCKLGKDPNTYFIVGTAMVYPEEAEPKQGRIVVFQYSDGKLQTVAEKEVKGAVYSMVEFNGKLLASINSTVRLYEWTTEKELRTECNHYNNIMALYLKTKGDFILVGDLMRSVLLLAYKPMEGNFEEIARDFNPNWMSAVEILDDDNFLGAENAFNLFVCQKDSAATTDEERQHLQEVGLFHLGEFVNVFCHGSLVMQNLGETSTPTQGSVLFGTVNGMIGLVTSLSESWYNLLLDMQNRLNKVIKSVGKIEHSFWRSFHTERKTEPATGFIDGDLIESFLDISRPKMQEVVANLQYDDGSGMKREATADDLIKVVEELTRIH

effect of a mutation on the interaction | Variant
decreasing interaction strength | R317C
decreasing interaction strength | R314H
